From patent publication US20240175869A1

Assays:
[1] = molecular target: ALK6; test: solid-phase binding assay, pH 6.0 (FIG. 12)
[2] = molecular target: ALK6; test: solid-phase binding assay, MuSK construct immobilized, ALK6 at 100 nM (FIG. 8)
[3] = molecular target: ALK6; test: solid-phase binding assay, saturation measured at 100 nM ALK6, pH 7.4
[4] = molecular target: ALK6; test: solid-phase binding assay, half max read from the curve (FIG. 8)
[5] = molecular target: ALK6; test: solid-phase binding assay, saturation measured at 100 nM ALK6, pH 6.0
[6] = molecular target: ALK6; test: solid-phase binding assay, pH 7.4 (FIG. 12)
[7] = molecular target: ALK6; test: solid-phase binding assay, MuSK construct immobilized, ALK6 titrated, pH 7.4; given as Half Max
[8] = molecular target: ALK6; test: solid-phase binding assay, MuSK construct immobilized, ALK6 titrated, pH 6.0; given as Half Max
[9] = molecular target: ALK6; test: solid-phase binding assay, MuSK immobilized, ALK6 at 100 nM (FIG. 7)
[10] = molecular target: ALK6; test: solid-phase binding assay, pH 7.4 (FIG. 13)
[11] = molecular target: ALK6; test: solid-phase binding assay, pH 6.0 (FIG. 13)
[12] = molecular target: ALK6; test: solid-phase binding assay, half max read from the curve (FIG. 10)
[13] = molecular target: ALK6; test: solid-phase binding assay, several assays, ALK6 at 100 nM
[14] = molecular target: ALK6; test: solid-phase binding assay, isolated domain immobilized, ALK6 titrated (FIG. 9)
[15] = molecular target: ALK6; test: solid-phase binding assay, half max read from the curve (FIG. 9)

ALK6, sequence (O00238 14-126): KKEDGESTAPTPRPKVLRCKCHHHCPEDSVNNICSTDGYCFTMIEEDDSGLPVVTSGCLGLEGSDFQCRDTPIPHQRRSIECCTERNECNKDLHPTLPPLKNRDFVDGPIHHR
MuSK Ig1-Ig2 only construct, His-tagged (receptor), sequence (Q62838 22-205): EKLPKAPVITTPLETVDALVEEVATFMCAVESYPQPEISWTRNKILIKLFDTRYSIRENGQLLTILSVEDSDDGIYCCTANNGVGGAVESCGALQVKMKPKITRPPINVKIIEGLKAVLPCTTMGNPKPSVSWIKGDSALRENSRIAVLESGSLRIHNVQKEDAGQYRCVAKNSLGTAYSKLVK
isolated MuSK Ig2 domain, His-tagged (receptor), sequence (Q62838 121-205): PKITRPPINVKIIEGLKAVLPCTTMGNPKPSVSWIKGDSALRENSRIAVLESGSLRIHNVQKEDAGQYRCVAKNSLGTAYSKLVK

MuSK Ig1-Ig2 only construct, His-tagged (receptor)
EC50 [1]: 6.25 nM
absorbance (absorbance (450 nm)) [1]: 3
absorbance at 100 nM ALK6 (absorbance (450 nm)) [2]: 3
Saturation (%) [3]: 21%
EC50 [4]: 6.25 nM
Saturation (%) [5]: 99%
EC50 [6]: 25 nM
absorbance (absorbance (450 nm)) [6]: 0.75
EC50 [7]: 18.2 nM
EC50 [8]: 15.9 nM

MuSK ectodomain with Ig2 deletion (ΔIg2), His-tagged (receptor)
absorbance at 100 nM ALK6 (absorbance (450 nm)) [9]: 0.15

MuSK ectodomain with an Ig1 deletion (ΔIg1), His-tagged (receptor)
EC50 [10]: 6.5 nM
maximum absorbance (absorbance (450 nm)) [10]: 4
EC50 [11]: 6.5 nM
maximum absorbance (absorbance (450 nm)) [11]: 4
Saturation (%) [3]: 99%
EC50 [12]: 12.5 nM
absorbance at 100 nM ALK6 (absorbance (450 nm)) [13]: > 3
Saturation (%) [5]: 100%
EC50 [7]: 9.1 nM
EC50 [8]: 13.7 nM

isolated MuSK Ig2 domain, His-tagged (receptor)
absorbance (absorbance (450 nm)) [14]: 1.8
Saturation (%) [5]: 83%
EC50 [15]: 6.25 nM
EC50 [8]: 23.6 nM
